Patent publication US20230399641A1
Read-outs that look alike come from different tables or passages of the source.

Columns and labels:
[1] = target: No hACE2
[2] = target: No hACE2; remark: listed apart in the source
[3] = target: No hACE2; remark: listed apart in the source

## receptor binding domain (RBD) of HCoV-NL63 spike (residues 481-616) (from UniProt Q6Q1S2 481-616) (ligand)
[1]
  % of cells in the PE-positive (RBD-bound) gate: 0.37%

## receptor binding domain (RBD) of SARS-CoV spike (residues 306-527) (from UniProt P59594 306-527) (ligand)
[2]
  % of cells in the PE-positive (RBD-bound) gate: 0.24%

## receptor binding domain (RBD) of wildtype SARS-CoV-2 spike (residues 319-541) (from UniProt P0DTC2 319-541) (ligand)
[3]
  % of cells in the PE-positive (RBD-bound) gate: 0.17%
